Where no end group is shown, it is not given here.
Target: Isolated RCK domain (M107-A336) of MthK, preparation for NMR (from pQE70-MthK) (Methanobacterium thermoautotrophicum, UniProt O27564 107-336)
Test: NMR titration; 700-MHz 1H NMR, 25 °C; isolated RCK titrated with synthetic peptide at [peptide]:[RCK] 0:1, 1:5, 1:2, 1:1 and 1:0; 20 mM Tris-HCl (pH 7.5), 150 mM KCl, 1 mM DTT; RCK concentrated to approximately 200 μM; disappearance of the peptide's His11 and Met1 peaks followed
Settings: both partners purified

binding result: binds
B1: synthetic aa1–11 peptide (peptide)
peptide: MVLVIEIIRKH-NH2
notes: MthK K+ channel of Methanobacterium thermoautotrophicum, N-terminal residues 1-11; source: synthetic peptide (Celtek Peptides)

Source: paper PMC2573919, “The Desensitization Gating of the MthK K^+ Channel Is Governed by Its Cytoplasmic Amino Terminus” (PLoS Biology, 2008)
